According to US20200231681A1 (CHONG KUN DANG PHARMACEUTICAL, published 2020):

Columns and labels:
[1] = biological target: T1, mouse EGFR (SiNo. Biological Inc, 51091-M08H) (mouse, UniProt Q01279 25-647); assay: ELISA, coated antigen 2 µg/ml
T1 construct: extracellular domain
Description: Particularly, mouse c-Met (SiNo. Biological Inc, 50622-M08H), cynomolgus monkey c-Met (SiNo. Biological Inc, 90304-CO8H), human c-Met (R&D Systems, 358-MT), mouse EGFR (SiNo. Biological Inc, 51091-M08H), cynomolgus monkey EGFR (SiNo. Biological, 90285-008B) and human EGFR (Abcam, 155639) antigens were all divided into a 96-well plate at a concentration of 2 μg/ml, after which the resulting plate was reacted at 4° C. overnight.
Color development was made by using TMB (Sigma, T4444) solution, wherein its value was measured at an optical density of 450 nm and its ELISA results are shown in FIG. 9.

[2] = biological target: T2, human PDGF Rβ Fc chimera (R&D systems, 385-PR_CF) (human, UniProt P09619 33-530); assay: indirect ELISA, hu8C4 at 30.000 nM
Description: (§1) Each antigen was diluted in 0.05 M carbonate-bicarbonate (Sigma, C3041) buffer at a concentration of 1 μg/ml, after which the resulting antigen was added into each well of a 96-well plate (Corning, #2592), such that the resulting plate was coated at 4° C. overnight. The plate was washed once with TBS-T, after which TBS-T containing 4%—skim milk was added by 200 μl into each well of the resulting plate in order to inhibit a non-specific binding, such that the resulting plate was reacted at 37° C. for 1 hour. Then, the plate was washed once with TBS-T buffer, after which a primary antibody was sequentially diluted in TBS-T buffer containing 2%—skim milk from a highest concentration of 30 nM to 0.002 nM, such that the resulting antibody was added by 100 μk into each well, thus being reacted at 37° C. for 2 hours. After being washed three times with TBS-T buffer, an anti-human kappa light chains-peroxidase (Sigma, A7164) was diluted at a ratio of 1:5000 as a secondary antibody, after which the resulting antibody was added by 100 μl into each well, thus being reacted at 37° C. for 1 hour. Then, after being washed three times with TBS-T buffer, TMB solution (Sigma, T4444) was added by 100 μl into each well to carry out an color developing reaction, after which 2 N […] solution was added by 50 μl into each well to stop the reaction. An optical density was measured based on a value at a wavelength of 450 nm by using a microplate reader and a reference wavelength of 570 nm was used.

[3] = biological target: T3, human IGF-I R (R&D systems, 391-GR-050) (human, UniProt P08069 31-932); assay: indirect ELISA, hu8C4 at 30.000 nM
Description: as §1

[4] = biological target: T4, human MSP R/Ron (R&D systems, 1947-MS-050) (human, UniProt Q04912 25-571, limits assumed); assay: indirect ELISA, hu8C4 at 30.000 nM
Description: as §1

[5] = biological target: T5, human c-Met Fc chimera (R&D systems, 358-MT_CF) (human, UniProt P08581 25-932); assay: indirect ELISA, hu8C4 at 0.002 nM
T5 construct: extracellular domain; also called human c-Met (R&D Systems, 358-MT)
Description: as §1

[6] = biological target: T3, human IGF-I R (R&D systems, 391-GR-050); assay: indirect ELISA, hu8C4 at 0.002 nM
Description: as §1

[7] = biological target: T2, human PDGF Rβ Fc chimera (R&D systems, …); assay: indirect ELISA, hu8C4 at 0.240 nM
Description: as §1

[8] = biological target: T6, human VEGF R2 Fc chimera (R&D systems, 357-KD_CF) (human, UniProt P35968 20-764); assay: indirect ELISA, hu8C4 at 0.240 nM
T6 construct: also called VEGFR R2
Description: as §1

[9] = biological target: T3, human IGF-I R (R&D systems, 391-GR-050); assay: indirect ELISA, hu8C4 at 0.240 nM
Description: as §1

[10] = biological target: T4, human MSP R/Ron (R&D systems, …); assay: indirect ELISA, hu8C4 at 0.240 nM
Description: as §1

[11] = biological target: T2, human PDGF Rβ Fc chimera (R&D systems, …); assay: indirect ELISA, hu8C4 at 0.010 nM
Description: as §1

[12] = biological target: T6, human VEGF R2 Fc chimera (R&D systems, …); assay: indirect ELISA, hu8C4 at 0.010 nM
Description: as §1

[13] = biological target: T3, human IGF-I R (R&D systems, 391-GR-050); assay: indirect ELISA, hu8C4 at 0.010 nM
Description: as §1

[14] = biological target: T4, human MSP R/Ron (R&D systems, …); assay: indirect ELISA, hu8C4 at 0.010 nM
Description: as §1

[15] = biological target: T2, human PDGF Rβ Fc chimera (R&D systems, …); assay: indirect ELISA, hu8C4 at 0.048 nM
Description: as §1

[16] = biological target: T5, human c-Met Fc chimera (R&D systems, …); assay: indirect ELISA, hu8C4 at 0.048 nM
Description: as §1

[17] = biological target: T3, human IGF-I R (R&D systems, 391-GR-050); assay: indirect ELISA, hu8C4 at 0.048 nM
Description: as §1

[18] = biological target: T4, human MSP R/Ron (R&D systems, …); assay: indirect ELISA, hu8C4 at 0.048 nM
Description: as §1

B1: hu8C4 (IgG1 humanized antibody having a hinge region of SEQ ID NO: 38 in hu8C4-1) (antibody, V domains shown)
VH: EVQLVESGGGLVQPGGSLRLSCAASGYTFSDYYINWVRQAPGKGLEWIGEIFPGSGNTHFSARFKGRATLSADKSKNTAYLQMNSLRAEDTAVYYCAGGDYGFLYWGQGTLVTVSS
VL: DIQMTQSPSSLSASVGDRVTITCGASENIYGALNWYQQKPGKAPKLLIYGATNLADGVPSRFSGSGSGRDFTFTISSLQPEDIATYYCQNVLSSPYTFGQGTKVEIK
notes: light chain detected with anti-human kappa; also called anti-c-Met antibody hu8C4; hu8C4 monospecific antibody
binding result [1]: no binding
A450 nm-A570 nm [2]: 0.01 A450 nm-A570 nm
A450 nm-A570 nm [3]: 0 A450 nm-A570 nm
A450 nm-A570 nm [4]: 0 A450 nm-A570 nm
A450 nm-A570 nm [5]: 0.05 A450 nm-A570 nm
A450 nm-A570 nm [6]: 0 A450 nm-A570 nm
A450 nm-A570 nm [7]: -0.01 A450 nm-A570 nm
A450 nm-A570 nm [8]: -0.02 A450 nm-A570 nm
A450 nm-A570 nm [9]: 0 A450 nm-A570 nm
A450 nm-A570 nm [10]: 0 A450 nm-A570 nm
A450 nm-A570 nm [11]: -0.01 A450 nm-A570 nm
A450 nm-A570 nm [12]: -0.01 A450 nm-A570 nm
A450 nm-A570 nm [13]: 0 A450 nm-A570 nm
A450 nm-A570 nm [14]: 0 A450 nm-A570 nm
A450 nm-A570 nm [15]: -0.01 A450 nm-A570 nm
A450 nm-A570 nm [16]: 0.76 A450 nm-A570 nm
A450 nm-A570 nm [17]: 0 A450 nm-A570 nm
A450 nm-A570 nm [18]: 0 A450 nm-A570 nm
